Tests used:
[1] = tested on: HeLa Kyoto; assay: solubility change mitosis vs G1/S (difference of NP-40 vs SDS log2 ratios) (log2 ratio difference); higher = more soluble in mitosis
[2] = tested on: HeLa Kyoto; assay: solubility in G1/S (NP-40 vs SDS abundance) (log2 ratio); higher = more soluble; conditions: cell cycle stage: G1/S
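Throughout, for solubility change mitosis vs G1/S (difference of NP-40 vs SDS log2 ratios): synchronized HeLa Kyoto cells (double thymidine block for G1/S, nocodazole release for mitosis), protein amounts in NP-40 versus SDS lysates quantified by mass spectrometry, three biological replicates.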
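Throughout, for solubility in G1/S (NP-40 vs SDS abundance): HeLa Kyoto cells arrested at G1/S by double thymidine block, proteins quantified by TMT10plex mass spectrometry in mild NP-40 versus SDS extracts, three biological replicates.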

Sequence of TFAP2C (chain, as listed by the source): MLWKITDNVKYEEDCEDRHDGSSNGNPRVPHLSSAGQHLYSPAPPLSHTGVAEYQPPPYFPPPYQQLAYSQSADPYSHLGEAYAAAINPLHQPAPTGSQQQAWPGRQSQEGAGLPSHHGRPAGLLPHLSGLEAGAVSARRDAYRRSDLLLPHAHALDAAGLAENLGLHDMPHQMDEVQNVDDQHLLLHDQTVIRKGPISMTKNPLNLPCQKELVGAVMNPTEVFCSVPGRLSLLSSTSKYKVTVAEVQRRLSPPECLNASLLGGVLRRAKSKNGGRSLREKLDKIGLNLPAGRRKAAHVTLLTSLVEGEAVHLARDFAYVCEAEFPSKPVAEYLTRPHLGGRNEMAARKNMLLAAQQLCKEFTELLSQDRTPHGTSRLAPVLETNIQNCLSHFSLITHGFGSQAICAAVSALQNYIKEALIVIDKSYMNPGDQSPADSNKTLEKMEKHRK
Sequence of TAF5L (chain, as listed by the source): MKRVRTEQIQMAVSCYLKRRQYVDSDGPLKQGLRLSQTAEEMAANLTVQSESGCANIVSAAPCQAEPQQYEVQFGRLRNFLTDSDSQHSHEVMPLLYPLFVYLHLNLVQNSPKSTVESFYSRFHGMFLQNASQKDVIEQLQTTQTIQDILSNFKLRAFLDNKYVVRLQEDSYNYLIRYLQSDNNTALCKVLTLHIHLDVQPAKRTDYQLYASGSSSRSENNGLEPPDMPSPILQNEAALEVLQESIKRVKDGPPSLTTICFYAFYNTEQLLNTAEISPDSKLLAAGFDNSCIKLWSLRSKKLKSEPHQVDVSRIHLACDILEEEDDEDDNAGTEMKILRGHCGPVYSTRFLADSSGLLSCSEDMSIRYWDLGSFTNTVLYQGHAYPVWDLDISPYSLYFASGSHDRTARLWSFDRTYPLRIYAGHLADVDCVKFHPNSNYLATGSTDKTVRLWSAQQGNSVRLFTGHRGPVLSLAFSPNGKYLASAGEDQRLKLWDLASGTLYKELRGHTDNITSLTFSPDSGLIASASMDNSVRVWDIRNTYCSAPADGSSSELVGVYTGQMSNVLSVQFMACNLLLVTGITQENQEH

| Substance | solubility change mitosis (log2) [1] | solubility in G1/S (log2) [2] |
| --- | --- | --- |
| MAAELRMILYEDDSVQVQYVDGSTLQLSPCGSEFLFEKSPPVSAHPLEQPERIRQRTHFVISTYREQLQRALDFRNSSATCPFLSETIIPSERKKHIFIDITEVRWPSLDTDGTMIYMESGIVKITSLDGHAYLCLPRSQHEFTVHFLCKVSQKSDSSAVLSETNNKAPKDKLVEKTGKICIRGNLPGQRLKNKENEFHCQIMKSKETLKKMSCVNGTEGREELPSPGTKHTCVYTWVKQCWSVAACPEEWKYPLSLALHFHNKISNMSKIDAHITQSRFLTSDISEERGKVVSVLPRALSLSCPVPHLHRWNFCDSLLQRQSDEYSYPELVKMVWYKGVTYRLTHQNMNSIEIYSGDGSVFKSEGAYFGNYFTYYSIQEGSGKREEKTYSVNNLPPDRPGSPFTVGSLIKQATRILQHCVKMRLSLSHNYRICCWKMVPGINDSNILPLVLKESLIPSVGRFLAYSDDKVHAIFLDGITLTLNWNFSSPIEKRQVNQGLNLGWCKLTFPDGQEQLIQIEHPEPYERYVTTVTSWCRRLTQTSPREMPTHSSSSVLQENWSVASELEKIQKFNLLLENSGILNQISNKKNEQQSFDHYKPGSSETLLGEVNENRVSIALKKTSEILHDIDCLLSNSKK [C5ORF34] | -0.0287 | -0.136 |
| TAF5L | -0.0612 | -0.145 |
| MGATGDAEQPRGPSGAERGGLELGDAGAAGQLVLTNPWNIMIKHRQVQRRGRRSQMTTSFTDPAISMDLLRAVLQPSINEEIQTVFNKYMKFFQKAALNVRDNVGEEVDAEQLIQEACRSCLEQAKLLFSDGEKVIPRLTHELPGIKRGRQAEEECAHRGSPLPKKRKGRPPGHILSSDRAAAGMVWKPKSCEPIRREGPKWDPARLNESTTFVLGSRANKALGMGGTRGRIYIKHPHLFKYAADPQDKHWLAEQHHMRATGGKMAYLLIEEDIRDLAASDDYRGCLDLKLEELKSFVLPSWMVEKMRKYMETLRTENEHRAVEAPPQT [DNTTIP1] | -0.0131 | 0.512 |
| MSEESDSLRTSPSVASLSENELPPPPEPPGYVCSLTEDLVTKAREELQEKPEWRLRDVQALRDMVRKEYPNLSTSLDDAFLLRFLRARKFDYDRALQLLVNYHSCRRSWPEVFNNLKPSALKDVLASGFLTVLPHTDPRGCHVVCIRPDRWIPSNYPITENIRAIYLTLEKLIQSEETQVNGIVILADYKGVSLSKASHFGPFIAKKVIGILQDGFPIRIKAVHVVNEPRIFKGIFAIIKPFLKEKIANRFFLHGSDLNSLHTNLPRSILPKEYGGTAGELDTATWNAVLLASEDDFVKEFCQPVPACDSILGQTLLPEGLTSDAQCDDSLRAVKSQLYSCY [TTPAL] | -0.0202 | 0.206 |
| MAEGSRGGPTCSGVGGRQDPVSGSGGCNFPEYELPELNTRAFHVGAFGELWRGRLRGAGDLSLREPPASALPGSQAADSDREDAAVARDLDCSLEAAAELRAVCGLDKLKCLEDGEDPEVIPENTDLVTLGVRKRFLEHREETITIDRACRQETFVYEMESHAIGKKPENSADMIEEGELILSVNILYPVIFHKHKEHKPYQTMLVLGSQKLTQLRDSIRCVSDLQIGGEFSNTPDQAPEHISKDLYKSAFFYFEGTFYNDKRYPECRDLSRTIIEWSESHDRGYGKFQTARMEDFTFNDLCIKLGFPYLYCHQGDCEHVIVITDIRLVHHDDCLDRTLYPLLIKKHWLWTRKCFVCKMYTARWVTNNDSFAPEDPCFFCDVCFRMLHYDSEGNKLGEFLAYPYVDPGTFN [SNAPC3] | -0.167 | -0.0618 |
| MAGAATGSRTPGRSELVEGCGWRCPEHGDRVAELFCRRCRRCVCALCPVLGAHRGHPVGLALEAAVHVQKLSQECLKQLAIKKQQHIDNITQIEDATEKLKANAESSKTWLKGKFTELRLLLDEEEALAKKFIDKNTQLTLQVYREQADSCREQLDIMNDLSNRVWSISQEPDPVQRLQAYTATEQEMQQQMSLGELCHPVPLSFEPVKSFFKGLVEAVESTLQTPLDIRLKESINCQLSDPSSTKPGTLLKTSPSPERSLLLKYARTPTLDPDTMHARLRLSADRLTVRCGLLGSLGPVPVLRFDALWQVLARDCFATGRHYWEVDVQEAGAGWWVGAAYASLRRRGASAAARLGCNRQSWCLKRYDLEYWAFHDGQRSRLRPRDDLDRLGVFLDYEAGVLAFYDVTGGMSHLHTFRATFQEPLYPALRLWEGAISIPRLP [TRIM14] | -0.0649 | -0.209 |
| MAAVKASTSKATRPWYSHPVYARYWQHYHQAMAWMQSHHNAYRKAVESCFNLPWYLPSALLPQSSYDNEAAYPQSFYDHHVAWQDYPCSSSHFRRSGQHPRYSSRIQASTKEDQALSKEEEMETESDAEVECDLSNMEITEELRQYFAETERHREERRRQQQLDAERLDSYVNADHDLYCNTRRSVEAPTERPGERRQAEMKRLYGDSAAKIQAMEAAVQLSFDKHCDRKQPKYWPVIPLKF [GEMIN8] | 0.219 | 0.511 |
| TFAP2C | 0.119 | -0.0214 |
| MMKKKKFKFKVDFELEELSSVPFVNGVLFCKMRLLDGGSFTAESSREVVQANCVRWRKKFSFMCKMSASAATGILDPCIYRVSVRKELKGGKAYAKLGFADLNLAEFAGSGNTTRRCLLEGYDTKNTRQDNSILKVLISMQLMSGDPCFKTPPSTSMSIPIAGESESLQEDRKGGETLKVHLGIADLSAKSASVPDELGACGHSRTSSYASQQSKVSGYSTCHSRSSSFSELCHRRNTSVGSTSTGVESILEPCDEIEQKIAEPNLDTADKEDTASEKLSRCPVKQDSVESQLKRVDDTRVDADDIVEKILQSQDFSLDSSAEEEGLRLFVGPGGSTTFGSHHLPNRVGSGAYEQVVIKR [FAM102B] | 0.0662 | -0.233 |
| MKGGNADSWQREKLASMESPEEPGASMDENYFVNYTFKDRSHSGRVAQGIMKLCLEEELFADVTISVEGREFQLHRLVLSAQSCFFRSMFTSNLKEAHNRVIVLQDVSESVFQLLVDYIYHGTVKLRAEELQEIYEVSDMYQLTSLFEECSRFLARTVQVGNCLQVMWLADRHSDPELYTAAKHCAKTHLAQLQNTEEFLHLPHRLLTDIISDGVPCSQNPTEAIEAWINFNKEEREAFAESLRTSLKEIGENVHIYLIGKESSRTHSLAVSLHCAEDDSISVSGQNSLCHQITAACKHGGDLYVVGGSIPRRMWKCNNATVDWEWCAPLPRDRLQHTLVSVPGKDAIYSLGGKTLQDTLSNAVIYYRVGDNVWTETTQLEVAVSGAAGANLNGIIYLLGGEENDLDFFTKPSRLIQCFDTETDKCHVKPYVLPFAGRMHAAVHKDLVFIVAEGDSLVCYNPLLDSFTRLCLPEAWSSAPSLWKIASCNGSIYVFRDRYKKGDANTYKLDPATSAVTVTRGIKVLLTNLQFVLA [KBTBD4] | -0.161 | -0.0904 |
| MDPLRAQQLAAELEVEMMADMYNRMTSACHRKCVPPHYKEAELSKGESVCLDRCVSKYLDIHERMGKKLTELSMQDEELMKRVQQSSGPA [TIMM10] | 0.197 | -0.415 |
| MSGEPELIELRELAPAGRAGKGRTRLERANALRIARGTACNPTRQLVPGRGHRFQPAGPATHTWCDLCGDFIWGVVRKGLQCARLSADCKFTCHYRCRALVCLDCCGPRDLGWEPAVERDTNVDEPVEWETPDLSQAEIEQKIKEYNAQINSNLFMSLNKDGSYTGFIKVQLKLVRPVSVPSSKKPPSLQDARRGPGRGTSVRRRTSFYLPKDAVKHLHVLSRTRAREVIEALLRKFLVVDDPRKFALFERAERHGQVYLRKLLDDEQPLRLRLLAGPSDKALSFVLKENDSGEVNWDAFSMPELHNFLRILQREEEEHLRQILQKYSYCRQKIQEALHACPLG [RASSF1] | 0.0429 | 0.0141 |
| MAALGVLESDLPSAVTLLKNLQEQVMAVTAQVKSLTQKVQAGAYPTEKGLSFLEVKDQLLLMYLMDLTHLILDKASGGSLQGHDAVLRLVEIRTVLEKLRPLDQKLKYQIDKLIKTAVTGSLSENDPLRFKPHPSNMMSKLSSEDEEEDEAEDDQSEASGKKSVKGVSKKYVPPRLVPVHYDETEAEREKKRLERAKRRALSSSVIRELKEQYSDAPEEIRDARHPHVTRQSQEDQHRINYEESMMVRLSVSKREKGRRKRANVMSSQLHSLTHFSDISALTGGTVHLDEDQNPIKKRKKIPQKGRKKKGFRRRR [NGDN] | 0.93 | -1.83 |
| MYO9A | 0.00755 | -0.102 |
| MARKSNLPVLLVPFLLCQALVRCSSPLPLVVNTWPFKNATEAAWRALASGGSALDAVESGCAMCEREQCDGSVGFGGSPDELGETTLDAMIMDGTTMDVGAVGDLRRIKNAIGVARKVLEHTTHTLLVGESATTFAQSMGFINEDLSTTASQALHSDWLARNCQPNYWRNVIPDPSKYCGPYKPPGILKQDIPIHKETEDDRGHDTIGMVVIHKTGHIAAGTSTNGIKFKIHGRVGDSPIPGAGAYADDTAGAAAATGNGDILMRFLPSYQAVEYMRRGEDPTIACQKVISRIQKHFPEFFGAVICANVTGSYGAACNKLSTFTQFSFMVYNSEKNQPTEEKVDCI | -0.136 | 0.0983 |
| MCDQQKQPQFPPSCVKGSGLGAGQGSNGASVKCPVPCQTQTVCVTGPAPCPTQTYVKYQVPCQTQTYVKCPAPCQRTYVKYPTPCQTYVKCPAPCQTTYVKCPTPCQTYVKCPAPCQMTYIKSPAPCQTQTCYVQGASPCQSYYVQAPASGSTSQYCVTDPCSAPCSTSYCCLAPRTFGVSPLRRWIQRPQNCNTGSSGCCENSGSSGCCGSGGCGCSCGCGSSGCCCLGIIPMRSRGPACCDHEDDCCC [XP32] | 1.06 | -1.33 |
